Test results reported in publication PMC10033409, “Autoregulation of GPCR signalling through the third intracellular loop” (Nature, 2023).

B1: CCK2 (protein, UniProt P32239 1-447, looked up)
Gastrin/cholecystokinin type …: MELLKLNRSVQGTGPGPGASLCRPGAPLLNSSSVGNLSCEPPRIRGAGTRELELAIRITLYAVIFLMSVGGNMLIIVVLGLSRRLRTVTNAFLLSLAVSDLLLAVACMPFTLLPNLMGTFIFGTVICKAVSYLMGVSVSVSTLSLVAIALERYSAICRPLQARVWQTRSHAARVIVATWLLSGLLMVPYPVYTVVQPVGPRVLQCVHRWPSARVRQTWSVLLLLLLFFIPGVVMAVAYGLISRELYLGLRFDGDSDSDSQSRVRNQGGLPGAVHQNGRCRPETGAVGEDSDGCYVQLPRSRPALELTALTAPGPGSGSRPTQAKLLAKKRVVRMLLVIVVLFFLCWLPVYSANTWRAFDGPGAHRALSGAPISFIHLLSYASACVNPLVYCFMHRRFRQACLETCARCCPRPPRARPRALPDEDPPTPSIASLSRLSYTTISTLGPG
B2: Nb6B9: nanobody that binds the receptor’s cytosolic cavity in the active state (antibody, V domains shown)
VH: QVQLQESGGGLVQAGGSLRLSCAASGSIFALNIMGWYRQAPGKQRELVAAIHSGGTTNYANSVKGRFTISRDNAANTVYLQMNSLKPEDTAVYYCNVKDFGAIIYDYDYWGQGTQVTVSS
B3: 5HT2C (protein, UniProt P28335 33-458, looked up)
5-hydroxytryptamine receptor …: IVTDIFNTSDGGRFKFPDGVQNWPALSIVIIIIMTIGGNILVIMAVSMEKKLHNATNYFLMSLAIADMLVGLLVMPLSLLAILYDYVWPLPRYLCPVWISLDVLFSTASIMHLCAISLDRYVAIRNPIEHSRFNSRTKAIMKIAIVWAISIGVSVPIPVIGLRDEEKVFVNNTTCVLNDPNFVLIGSFVAFFIPLTIMVITYCLTIYVLRRQALMLLHGHTEEPPGLSLDFLKCCKRNTAEEENSANPNQDQNARRRKKKERRPRGTMQAINNERKASKVLGIVFFVFLIMWCPFFITNILSVLCEKSCNQKLMEKLLNVFVWIGYVCSGINPLVYTLFNKIYRRAFSNYLRCNYKVEKKPPVRQIPRVAATALSGRELNVNIYRHTNEPVIEKASDNEPGIEMQVENLELPVNPSSVVSERISSV
B4: DRD3 (protein, UniProt P35462 1-400, looked up)
D(3) dopamine receptor: MASLSQLSGHLNYTCGAENSTGASQARPHAYYALSYCALILAIVFGNGLVCMAVLKERALQTTTNYLVVSLAVADLLVATLVMPWVVYLEVTGGVWNFSRICCDVFVTLDVMMCTASILNLCAISIDRYTAVVMPVHYQHGTGQSSCRRVALMITAVWVLAFAVSCPLLFGFNTTGDPTVCSISNPDFVIYSSVVSFYLPFGVTVLVYARIYVVLKQRRRKRILTRQNSQCNSVRPGFPQQTLSPDPAHLELKRYYSICQDTALGGPGFQERGGELKREEKTRNSLSPTIAPKLSLEVRKLSNGRLSTSLKLGPLQPRGVPLREKKATQMVAIVLGAFIVCWLPFFLTHVLNTHCQTCHVSPELYSATTWLGYVNSALNPVIYTTFNIEFRKAFLKILSC
B5: CNR1 (protein, UniProt P21554 1-472, looked up)
Cannabinoid receptor 1: MKSILDGLADTTFRTITTDLLYVGSNDIQYEDIKGDMASKLGYFPQKFPLTSFRGSPFQEKMTAGDNPQLVPADQVNITEFYNKSLSSFKENEENIQCGENFMDIECFMVLNPSQQLAIAVLSLTLGTFTVLENLLVLCVILHSRSLRCRPSYHFIGSLAVADLLGSVIFVYSFIDFHVFHRKDSRNVFLFKLGGVTASFTASVGSLFLTAIDRYISIHRPLAYKRIVTRPKAVVAFCLMWTIAIVIAVLPLLGWNCEKLQSVCSDIFPHIDETYLMFWIGVTSVLLLFIVYAYMYILWKAHSHAVRMIQRGTQKSIIIHTSEDGKVQVTRPDQARMDIRLAKTLVLILVVLIICWGPLLAIMVYDVFGKMNKLIKTVFAFCSMLCLLNSTVNPIIYALRSKDLRHAFRSMFPSCEGTAQPLDNSMGDSDCLHKHANNAASVHRAAESCIKSTVKIAKVTMSVSTDTSAEAL
B6: ADA1A (protein, UniProt P35348 1-466, looked up)
Alpha-1A adrenergic receptor: MVFLSGNASDSSNCTQPPAPVNISKAILLGVILGGLILFGVLGNILVILSVACHRHLHSVTHYYIVNLAVADLLLTSTVLPFSAIFEVLGYWAFGRVFCNIWAAVDVLCCTASIMGLCIISIDRYIGVSYPLRYPTIVTQRRGLMALLCVWALSLVISIGPLFGWRQPAPEDETICQINEEPGYVLFSALGSFYLPLAIILVMYCRVYVVAKRESRGLKSGLKTDKSDSEQVTLRIHRKNAPAGGSGMASAKTKTHFSVRLLKFSREKKAAKTLGIVVGCFVLCWLPFFLVMPIGSFFPDFKPSETVFKIVFWLGYLNSCINPIIYPCSSQEFKKAFQNVLRIQCLCRKQSSKHALGYTLHPPSQAVEGQHKDMVRIPVGSRETFYRISKTDGVCEWKFFSSMPRGSARITVSKDQSSCTTARVRSKSFLQVCCCVGPSTPSLDKNHQVPTIKVHTISLSENGEEV

Legend:
PTH1R–Gq peptide = experiment: PTH1R-luciferase complementation reporter assay, Gq peptide; type: biochemical, human; conditions: PTH1R construct named by the receptor or protein whose sequence replaces ICL3 (WT = wild-type); Y axis of Figure 5G
Description: For PTH1R luciferase complementation reporter assays, cells were seeded the day prior to transfection at 25-30% confluence on 12-well plates. For each transfection, 0.5 μg DNA, 1.5 μl X-tremeGENE HP, and 100 μl Opti-MEM were combined, incubated for 15-20 min, and added to seeded wells. For each mutant, PTH1R-Gs peptide, PTH1R-Gq peptide and PTH1R-(no peptide) constructs were transfected in parallel. Spep and Qpep constructs were transfected 24 h prior to collection, and no-peptide constructs were transfected 18 h before collection. […] Media in each well was used to gently shear and resuspend the cells by pipetting. The cell mixture was centrifuged (3 min, 300g) and the media was aspirated. Cell pellet was resuspended in 1 ml PBS and centrifuged again as above. […] Cellular debris was removed by centrifugation (1,000g for 1 min). To collect additional vesicles, debris was resuspended in 0.3 ml PBS, briefly vortexed, and centrifuged again (1,000g for 1 min). The ~0.9 ml of combined decanted supernatant was centrifuged one additional time (1,000g for 2 min) to better remove cellular debris. […] Vesicle samples were collected in a 96-well clear bottom plate and assayed for TagRFP fluorescence (Tecan Spark, excitation 521 nm, emission 585 nm, gain 150). For each set of constructs for a given […] ([…] control), samples were diluted to the lowest TagRFP counts. […] The plate was tapped 2-3 times to mix, and the kinetic read was resumed. Moving averages were computed for each kinetic trace (3-point averages for 5 min equilibration, 8-point moving averages post-drug treatment). Each kinetic trace was normalized to the last point of the pre-drug equilibration. The maximum luminescence value that appeared stable over time was used for further analysis. Specific Spep and Qpep signals were calculated by subtracting the control value from the Spep value and the Qpep value for a given experiment.

PTH1R–Gs peptide = experiment: PTH1R-luciferase complementation reporter assay, Gs peptide; type: biochemical, human; conditions: PTH1R construct named by the receptor or protein whose sequence replaces ICL3 (WT = wild-type); X axis of Figure 5G
Description: For PTH1R luciferase complementation reporter assays, cells were seeded the day prior to transfection at 25–30% confluence on 12-well plates. For each transfection, 0.5 µg DNA, 1.5 µl X-tremeGENE HP, and 100 µl Opti-MEM were combined, incubated for 15–20 min, and added to seeded wells. […] Spep and Qpep constructs were transfected 24 h prior to collection, and no-peptide constructs were transfected 18 h before collection.
Expressed PTH1R-luciferase complementation constructs were vesiculated as previously described, with modifications for smaller sample volume[25]. Media in each well was used to gently shear and resuspend the cells by pipetting. The cell mixture was centrifuged (3 min, 300g) and the media was aspirated. Cell pellet was resuspended in 1 ml PBS and centrifuged again as above. Cells were resuspended again in 0.6 ml vesiculation buffer (10 mM HEPES pH 7.4, 150 mM NaCl, 20 mM CaCl2, 2 µg ml^−1 aprotinin, 2 µg ml^−1 leupeptin, 2 mM N-ethylmaleimide) and incubated at 30 °C with shaking at 180 rpm for 2 h. Cellular debris was removed by centrifugation (1,000g for 1 min). To collect additional vesicles, debris was resuspended in 0.3 ml PBS, briefly vortexed, and centrifuged again (1,000g for 1 min). The ~0.9 ml of combined decanted supernatant was centrifuged one additional time (1,000g for 2 min) to better remove cellular debris. Vesicles were collected by centrifugation (3,200g for 40 min at 4 °C) and washed in 0.5 ml assay buffer. Centrifugation step was repeated, and vesicles were resuspended in 0.1 ml assay buffer.
45 µl of each sample was transferred to an opaque 96-well flat bottom plate. 45 µl of Nano-Glo Substrate (Promega N1110) diluted 1:50 in assay buffer was added to each well in the new plate. After tapping the plate to collect liquid at the bottom of the well, a kinetic luminescence read was started (500 ms integration, continuous for 40 min) and luminescence signal was tracked. […] The plate was tapped 2–3 times to mix, and the kinetic read was resumed. Moving averages were computed for each kinetic trace (3-point averages for 5 min equilibration, 8-point moving averages post-drug treatment). Each kinetic trace was normalized to the last point of the pre-drug equilibration. The maximum luminescence value that appeared stable over time was used for further analysis. Specific Spep and Qpep signals were calculated by subtracting the control value from the Spep value and the Qpep value for a given experiment.

[1] = system: β2AR–Gs peptide FRET sensor; experiment: ∆FRET assay, β2AR–Gs peptide SPASM FRET sensor
[2] = target: β2AR ICL3 FRET sensor, β2AR(L258Azi/Y350Azi/∆351–413) (Homo sapiens, UniProt P07550, L258F/Y350F); experiment: Time-correlated single photon counting FRET assay, β2AR ICL3 FRET sensor (AZDye488/AZDye546); conditions: in combination with isoproterenol
Description: Cell membranes were prepared following the procedure in ‘Crude cell membrane extracts’ through the first ultracentrifugation step (135,000g, 25 min, 4 °C). […] Solution was homogenized, first by passing through a 1 ml micropipette 10 times, then passing through a 20-gauge needle 10 times. To initiate the reaction, sodium ascorbate (50 mM) was added to the mixture and mixed by pipetting (2 ml final volume). Reactions were incubated with mild shaking (500 rpm) for 30 min at 25 °C.
For conditions without drug, peptide or nanobody, an equivalent volume of assay buffer was added. Reactions were equilibrated for 5 min prior to reading. […] Time-resolved fluorescence decay data were fit to the equation: Decay=α1e^−t/τ^1+α2e^−t/τ^2+α3e^−t/τ^3
Amplitude-weighted average lifetimes (τavg) were calculated from the three-exponential decay equation: τavg=(α1τ1+α2τ2+α3τ3)/(α1+α2+α3)
Each condition was performed in technical duplicate or triplicate, depending on sensor yield.

Molecule	Specific Peptide Signal, Gq (Average) (PTH1R–Gq peptide)	Specific Peptide Signal, Gs (Average) (PTH1R–Gs peptide)	effect on agonist-induced FRET of β2AR–G peptide sensor ([1]; wild-type β2AR–Gs peptide FRET sensor)	effect on agonist-induced FRET of β2AR–G peptide sensor ([1]; β2AR(∆ICL3), Gs and Gq peptide sensors)	effect on FRET efficiency of the ICL3 FRET sensor treated with isoproterenol [2]
B1	0.12	0.42	–	–	–
B2	–	–	significantly quenched FRET	quenched the interactions of both the Gs and Gq peptides with the receptor	quenched
B3	-0.00493	0.48	–	–	–
B4	0.08	0.72	–	–	–
B5	0.10	0.53	–	–	–
B6	0.14	0.59	–	–	–
